How the values were obtained:
[1] = tested on: purified S. suis cell walls (from type strain 5735); experiment: PlySs1 bond specificity, double digestion with HEWL, mass spectrum; format: biochemical; conditions: double digestion with HEWL and PlySs1
Description: To determine the bond specificity of the enzymatic domain of PlySs1, purified S. suis cell walls (from type strain 5735) were subject to double digestion with HEWL (a muramidase) and PlySs1. The two predominant peaks were m/z=718 and m/z=734. This corresponds exactly to the predicted masses of the [Na-M]+ and [K-M]+ adducts of GlcNAc-MurNAc-LAla-D-Gln. […] When a mass spectrum was taken of undigested cell wall, the above two peaks were absent.

[2] = tested on: S. aureus RN4220; experiment: ΔPlySs1 OD600 lysis, 1 hr; format: cell-based
[3] = tested on: S. mutans U159; experiment: ΔPlySs1 OD600 lysis, 1 hr; format: cell-based
[4] = tested on: S. suis ST8; experiment: ΔPlySs1 OD600 lysis, 1 hr; format: cell-based
Method: (§1) Given the above experiments, the following optimal buffering conditions were employed for all further in vitro experiments with ΔPlySs1: 20 mM phosphate buffer, pH=7.8, 2 mM EDTA. A range of lysin concentrations, from 6.5-130 μg/ml, were introduced to live S. suis cells in this buffer. Three strains were considered particularly relevant: 7711, the serotype 7 strain that encodes PlySs1; 5735, the serotype 2 reference strain; and 7997, a highly virulent serotype 9 strain. In terms of bacterial viability, only the highest PlySs1-concentration (130 μg/ml) led to a >90% decrease in CFUs for 7711, S735, and 7997 after 1 hr treatment (TABLE 2). The lysin was also tested against actively-dividing cells in broth culture (strain 7711) (FIG. 20).
(§2) ΔPlySs1 was further tested against a panel of 19 other S. suis strains of diverse serotypes, as well as other species of Gram-positive bacteria. The same lysin concentrations were used as above. For each dosage, the observed lysis values after 1 hr are listed in TABLE 3 and TABLE 4, and the information is summarized graphically in FIG. 21.

[5] = tested on: S. suis ST13; experiment: ΔPlySs1 OD600 lysis, 1 hr; format: cell-based
Method: as §1, §2

[6] = tested on: S. suis ST3; experiment: ΔPlySs1 OD600 lysis, 1 hr; format: cell-based
Method: as §1, §2

[7] = tested on: S. suis ST2; experiment: ΔPlySs1 OD600 lysis, 1 hr; format: cell-based
Method: as §1, §2

[8] = tested on: B. thuringiensis HD73; experiment: ΔPlySs1 OD600 lysis, 1 hr; format: cell-based
[9] = tested on: S. agalactiae 090R; experiment: ΔPlySs1 OD600 lysis, 1 hr; format: cell-based
[10] = tested on: S. equi 9528; experiment: ΔPlySs1 OD600 lysis, 1 hr; format: cell-based
[11] = tested on: S. suis 7997 (ST9); experiment: ΔPlySs1 CFU analysis; format: cell-based; conditions: 1 hr
Method: as §1
(§3) For two ΔPlySs1 concentrations (130 and 13 μg/ml), CFU analysis was conducted on S. suis strains 5735, 7997, and 7711 after 1 hr treatment (optimal buffering conditions). In each experiment, the percentage-decrease in CFUs was determined for the treated sample versus the untreated. The range of the values observed (across 3 independent experiments) is reported here for each strain. The serotype of each strain is indicated in parentheses.

[12] = tested on: S. suis 5735 (ST2); experiment: ΔPlySs1 CFU analysis; format: cell-based; conditions: 1 hr
Method: as §1, §3

[13] = tested on: S. suis 7711 (ST7); experiment: ΔPlySs1 CFU analysis; format: cell-based; conditions: 1 hr
Method: as §1, §3

[14] = tested on: S. salivarius 9222; experiment: ΔPlySs1 OD600 lysis, 1 hr; format: cell-based
[15] = tested on: S. rattus BHT; experiment: ΔPlySs1 OD600 lysis, 1 hr; format: cell-based
[16] = tested on: B. cereus 14579; experiment: ΔPlySs1 OD600 lysis, 1 hr; format: cell-based
[17] = tested on: E. faecium EFSK2; experiment: ΔPlySs1 OD600 lysis, 1 hr; format: cell-based

B1: ΔPlySs1: truncated PlySs1 lysin with N-terminal enzymatic and central binding domains, N-terminal 254 amino acids, SEQ ID NO:2 (protein, listed as Streptococcus suis)
chain: MTINLETSIRWMSDRVGKVSYSMDYRNGPNSYDCSSAVYYALMAGGAISAGWAVNTEYMHDWLIRNGYVLVAENKPFNAQRHDVCILGKRGYSSGAGGHVVIFVDNVNVIHCNYARNGISIDNYNQVHRGMYYYLYRPANQPSISNKSLDQLVKETLAGVHGNGDTRKASLGSQYEAVMAVINGKASASEKSDEELAREVLAGKHGAGEDRKRSLGPRYEPVQAKVNELLKAKEKPSETAKNEPQTVQFKEDGDL
bond specificity of the enzymatic domain [1]: gamma-endopeptidase activity
1-hour treated/untreated OD600-ratio ([2]; 6.5 μg/ml): 0.89
1-hour treated/untreated OD600-ratio ([2]; 13 μg/ml): 0.78
1-hour treated/untreated OD600-ratio ([2]; 30 μg/ml): 0.55
1-hour treated/untreated OD600-ratio ([2]; 65 μg/ml): 0.31
1-hour treated/untreated OD600-ratio ([2]; 130 μg/ml): 0.10
1-hour treated/untreated OD600-ratio ([3]; 6.5 μg/ml): 0.95
1-hour treated/untreated OD600-ratio ([3]; 13 μg/ml): 0.99
1-hour treated/untreated OD600-ratio ([3]; 30 μg/ml): 0.94
1-hour treated/untreated OD600-ratio ([3]; 65 μg/ml): 0.76
1-hour treated/untreated OD600-ratio ([3]; 130 μg/ml): 0.85
1-hour treated/untreated OD600-ratio ([4]; 6.5 μg/ml): 0.25
1-hour treated/untreated OD600-ratio ([4]; 13 μg/ml): 0.12
1-hour treated/untreated OD600-ratio ([4]; 30 μg/ml): 0.06
1-hour treated/untreated OD600-ratio ([4]; 65 μg/ml): 0.03
1-hour treated/untreated OD600-ratio ([4]; 130 μg/ml): 0.03
1-hour treated/untreated OD600-ratio ([5]; 6.5 μg/ml): 0.32
1-hour treated/untreated OD600-ratio ([5]; 13 μg/ml): 0.17
1-hour treated/untreated OD600-ratio ([5]; 30 μg/ml): 0.04
1-hour treated/untreated OD600-ratio ([5]; 65 μg/ml): 0.02
1-hour treated/untreated OD600-ratio ([5]; 130 μg/ml): 0.02
1-hour treated/untreated OD600-ratio ([6]; 6.5 μg/ml): 0.81
1-hour treated/untreated OD600-ratio ([6]; 13 μg/ml): 0.71
1-hour treated/untreated OD600-ratio ([6]; 30 μg/ml): 0.48
1-hour treated/untreated OD600-ratio ([6]; 65 μg/ml): 0.32
1-hour treated/untreated OD600-ratio ([6]; 130 μg/ml): 0.16
1-hour treated/untreated OD600-ratio ([7]; 6.5 μg/ml): 0.79
1-hour treated/untreated OD600-ratio ([7]; 13 μg/ml): 0.70
1-hour treated/untreated OD600-ratio ([7]; 30 μg/ml): 0.49
1-hour treated/untreated OD600-ratio ([7]; 65 μg/ml): 0.34
1-hour treated/untreated OD600-ratio ([7]; 130 μg/ml): 0.17
1-hour treated/untreated OD600-ratio ([8]; 6.5 μg/ml): 0.99
1-hour treated/untreated OD600-ratio ([8]; 13 μg/ml): 0.98
1-hour treated/untreated OD600-ratio ([8]; 30 μg/ml): 0.93
1-hour treated/untreated OD600-ratio ([8]; 65 μg/ml): 0.86
1-hour treated/untreated OD600-ratio ([8]; 130 μg/ml): 0.60
1-hour treated/untreated OD600-ratio ([9]; 6.5 μg/ml): 0.97
1-hour treated/untreated OD600-ratio ([9]; 13 μg/ml): 0.99
1-hour treated/untreated OD600-ratio ([9]; 30 μg/ml): 0.97
1-hour treated/untreated OD600-ratio ([9]; 65 μg/ml): 0.98
1-hour treated/untreated OD600-ratio ([9]; 130 μg/ml): 0.93
1-hour treated/untreated OD600-ratio ([10]; 6.5 μg/ml): 0.66
1-hour treated/untreated OD600-ratio ([10]; 13 μg/ml): 0.45
1-hour treated/untreated OD600-ratio ([10]; 30 μg/ml): 0.25
1-hour treated/untreated OD600-ratio ([10]; 65 μg/ml): 0.19
1-hour treated/untreated OD600-ratio ([10]; 130 μg/ml): 0.16
percentage-decrease in CFUs, treated versus untreated (range of 3 experiments) ([11]; 13 μg/ml): 16.8%-30.3%
percentage-decrease in CFUs, treated versus untreated (range of 3 experiments) ([11]; 130 μg/ml): 89.9%-93.9%
percentage-decrease in CFUs, treated versus untreated (range of 3 experiments) ([11]; 130 μg/ml, listed as PlySs1): > 90%
percentage-decrease in CFUs, treated versus untreated (range of 3 experiments) ([12]; 13 μg/ml): 80.4%-92.6%
percentage-decrease in CFUs, treated versus untreated (range of 3 experiments) ([12]; 130 μg/ml): 95.4%-99.5%
percentage-decrease in CFUs, treated versus untreated (range of 3 experiments) ([12]; 130 μg/ml, listed as PlySs1): > 90%
percentage-decrease in CFUs, treated versus untreated (range of 3 experiments) ([13]; 13 μg/ml): 0%-35.6%
percentage-decrease in CFUs, treated versus untreated (range of 3 experiments) ([13]; 130 μg/ml): 95.3%-99.2%
percentage-decrease in CFUs, treated versus untreated (range of 3 experiments) ([13]; 130 μg/ml, listed as PlySs1): > 90%
1-hour treated/untreated OD600-ratio ([14]; 6.5 μg/ml): 0.80
1-hour treated/untreated OD600-ratio ([14]; 13 μg/ml): 0.76
1-hour treated/untreated OD600-ratio ([14]; 30 μg/ml): 0.56
1-hour treated/untreated OD600-ratio ([14]; 65 μg/ml): 0.53
1-hour treated/untreated OD600-ratio ([14]; 130 μg/ml): 0.37
1-hour treated/untreated OD600-ratio ([15]; 6.5 μg/ml): 0.82
1-hour treated/untreated OD600-ratio ([15]; 13 μg/ml): 0.84
1-hour treated/untreated OD600-ratio ([15]; 30 μg/ml): 0.82
1-hour treated/untreated OD600-ratio ([15]; 65 μg/ml): 0.83
1-hour treated/untreated OD600-ratio ([15]; 130 μg/ml): 0.79
1-hour treated/untreated OD600-ratio ([16]; 6.5 μg/ml): 0.93
1-hour treated/untreated OD600-ratio ([16]; 13 μg/ml): 0.92
1-hour treated/untreated OD600-ratio ([16]; 30 μg/ml): 0.86
1-hour treated/untreated OD600-ratio ([16]; 65 μg/ml): 0.90
1-hour treated/untreated OD600-ratio ([16]; 130 μg/ml): 0.86
1-hour treated/untreated OD600-ratio ([17]; 6.5 μg/ml): 0.85
1-hour treated/untreated OD600-ratio ([17]; 13 μg/ml): 0.67
1-hour treated/untreated OD600-ratio ([17]; 30 μg/ml): 0.52
1-hour treated/untreated OD600-ratio ([17]; 65 μg/ml): 0.32
1-hour treated/untreated OD600-ratio ([17]; 130 μg/ml): 0.13

Reference: patent US20140179594A1, “STREPTOCOCCUS BACTERIOPHAGE LYSINS FOR TREATMENT OF GRAM POSITIVE BACTERIA IN COMPANION ANIMALS AND LIVESTOCK” (priority 2011, published 2014)
